These results are taken from US8663642B2, “Anti-CD70 antibody-drug conjugates and their use for the treatment and prevention of cancer and immune disorders” (priority 2003, dated 2014).

For series [1], the system named is 786-O cells. Kind of series: 3H-TdR proliferation assay, RCC lines. The series is classed as cell-based, human. To be noted: 3H-TdR incorporation, 96 hours.
Another series relates to activated T cell clones. Description: Proliferation of activated T cell clones (3H-TdR). The series is classed as cell-based, human.
Series [2] concerns CD70^+ hematologic cell lines. Kind of series: 3H-TdR proliferation assay, panel of CD70^+ hematologic lines. The series is classed as cell-based, human. The following applies: all the responsive cell lines tested. Here is the method: FIG. 5: Effects of anti-CD70 ADCs on the proliferation of transformed hematologic cell lines. A subset of the CD70^+ cell lines shown in FIG. 4 and the CD70^− Jurkat cell line were tested for their sensitivity toward 1F6 ADCs. Graded doses of the 1F6-vcMMAE, 1F6-vcAFP, or the corresponding non-binding control IgG (IgG) ADCs were added to cells at the initiation of culture. Cells were exposed to the ADCs continuously for a total of 96 hours. Proliferation was determined by pulsing with ^3H-TdR during the last 16 hours of incubation. The upper panels show the response of the WSU-NHL and Jurkat lines. The lower panel summaries the responses by the tested cell lines to 1F6-vcMMAE and 1F6-vcAFP in form of IC50s.
A subset of the CD70^+ hematologic lines listed in FIG. 4 was tested for sensitivity to the 1F6 ADCs. These lines were seeded at 5,000 cells per well in 96-well plates in quadruplicates in a total of 200 μl of culture medium containing graded doses of the ADCs as indicated in the FIG. 5 and the accompanying figure legend. Proliferation assays were carried out for 96 hours. Tritiated thymidine (^3H-TdR) incorporation during the last 16 hours of incubation was used to assess DNA synthesis. The responses of a CD70^+ B lymphoma cell line WSU-NHL and the CD70^− Jurkat cells are shown in the upper panels of FIG. 5. […]

For series [3], the system named is CD70^+ RCC lines. To be noted: in 4 of the 7 CD70^+ RCC lines tested. How it is done:
(§1) To examine the responses of CD70^+ RCC lines to 1F6 ADCs, cells were seeded between 1,000 to 3,000 cells per well in 100 μl of medium. An additional 100 μl of culture medium containing graded doses of ADCs were added to the wells after cells were allowed to attached overnight. In addition to DNA synthesis, cell viability, as a reflection of the cytotoxic activities of ADCs, was also assayed by the reduction of alamarBlue™ (Biosource International, Camarillo, Calif.). The alamarBlue™ dye was added at a one to four dilution during the last 4 to 24 hours of the incubation. Dye reduction was assessed by fluorescence spectrometry using the excitation and emission wavelengths of 535 nm and 590 nm, respectively. For analysis, the amount of ^3H-TdR incorporated or the extent of alamarBlue™ reduction by the treated cells was compared to that of the untreated control cells.

For series [4], the system named is CD70^+ RCC lines. Kind of series: 3H-TdR proliferation assay, panel of RCC lines. The series is classed as cell-based, human. The following applies: CD70^+ RCC lines tested.
Series [5] has as its system Caki-1 cells. Description: alamarBlue reduction cell viability (cytotoxicity) assay. The following applies: Caki-1, alamarBlue reduction, 96 hours. Here is the method: (§2) 786-O or Caki-1 cells were incubated with graded doses of 1F6-vcAFP or the non-binding control IgG-vcAFP. Cells were incubated for a total of 96 hours. ^3H-thymidine incorporation (upper panel) and reduction of alamarBlue (lower panel) were used to determine proliferation and cell viability, respectively. Data points are expressed as percentages of the untreated control. Error bars represent the standard deviations of values obtained from quadruplicate wells.
as §1
In general terms: The colour change of resazurin is a common sign of viable cells or microbes.

In series [6] the test system is 786-O cells. The description is as above. To be noted: 96 hours. How it is done: as §2, §1
The next series has as its system CD70^− Hs 835.T cells. Description: 3H-TdR proliferation assay, CD70-negative RCC line. It counts as cell-based, human. The following applies: CD70^− Hs 835.T, compared with CD70^+ RCC lines.
The subject of series [7] is Caki-1 cells. Description: 3H-TdR proliferation assay, RCC lines. It counts as cell-based, human. The following applies: Caki-1, 3H-TdR incorporation, 96 hours.

B1: 1F6-vcAFP: anti-CD70 mAb 1F6 linked to auristatin phenylalanine phenylenediamine by the valine-citrulline (vc) dipeptide linker (conjugate)
VH: QIQLVQSGPEVKKPGETVKISCKASGYTFTNYGMNWVKQAPGKGLKWMGWINTYTGEPTYADAFKGRFAFSLETSASTAYLQINNLKNEDTATYFCARDYGDYGMDYWGQGTSVTVSS
VL: DIVLTQSPASLAVSLGQRATISCRASKSVSTSGYSFMHWYQQKPGQPPKLLIYLASNLESGVPARFSGSGSGTDFTLNIHPVEEEDAATYYCQHSREVPWTFGGGTKLEIKR
modifications: non-natural residues
notes: anti-CD70 mAb 1F6 linked to auristatin phenylalanine phenylenediamine by the valine-citrulline (vc) dipeptide linker
As for B1, the “concentration at which maximal proliferation inhibitory effects were achieved” value with 786-O cells [1] and in the series on Caki-1 cells [7] was “lower than 0.1 μg/ml” each time. Moreover, the relative activity entry in the series on activated T cell clones (T cell clones) is reported as “more active than 1F6-vcVMMAE”. Moreover, the “IC50, proliferation” value in the series with activated T cell clones (all 3 clones) was “below 0.05 μg/ml”. In addition, in series [2], the relative inhibitory activity result is “more potent inhibitory activity than 1F6-vcMMAE”. Further, the “IC50 values to induce cytotoxicity” value with CD70^+ RCC lines [3] was “lower than 20 ng/ml”. Also, the “IC50 values for proliferation inhibition” value in the series on CD70^+ RCC lines [4] is 2 to 247 ng/mL; in the series on CD70^− Hs 835.T cells, “Substantially higher IC50 values”. Also, the “concentration at which maximal cytotoxic effects were achieved” value in the series on Caki-1 cells [5] and in the series with 786-O cells [6] was “lower than 0.1 μg/ml” in each case.
